In publication doi:10.1101/296376 (bioRxiv, 2018):

Target: Miro1-ABC (aa 1-592), C-terminal 6xHis-tag (human, UniProt Q8IXI2 1-592)
Assay: pull-down

Chain of Miro1-ABC (aa 1-592), C-terminal 6xHis-tag (Q8IXI2 1-592): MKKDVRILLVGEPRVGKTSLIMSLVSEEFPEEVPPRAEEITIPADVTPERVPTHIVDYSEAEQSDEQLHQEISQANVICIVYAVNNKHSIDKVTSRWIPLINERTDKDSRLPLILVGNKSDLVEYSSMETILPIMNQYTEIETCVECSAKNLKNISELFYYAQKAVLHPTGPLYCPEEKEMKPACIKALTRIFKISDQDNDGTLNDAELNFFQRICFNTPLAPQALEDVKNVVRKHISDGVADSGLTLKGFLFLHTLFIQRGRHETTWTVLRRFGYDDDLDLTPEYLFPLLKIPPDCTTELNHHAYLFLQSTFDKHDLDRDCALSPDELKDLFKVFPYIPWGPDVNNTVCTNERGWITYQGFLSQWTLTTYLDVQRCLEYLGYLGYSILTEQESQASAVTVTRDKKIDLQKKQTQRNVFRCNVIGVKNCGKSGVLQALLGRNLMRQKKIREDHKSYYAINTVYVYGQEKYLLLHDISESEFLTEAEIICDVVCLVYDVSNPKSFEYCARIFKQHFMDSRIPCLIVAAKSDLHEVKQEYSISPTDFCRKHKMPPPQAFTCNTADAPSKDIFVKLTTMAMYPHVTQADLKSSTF

binding result: binds
B1: Myo19 C-tail (aa 898-970)-FLAG (domain or fragment)
chain: not shown
